Laboratory results as given in patent US20160297889A1 (TORAY INDUSTRIES, published 2016).
Changes are numbered by the printed parent chain.

T1: CAPRIN-1 protein expressed on the membrane surface of human cancer cells (human, UniProt Q14444 2-709)
T1 sequence (looked up): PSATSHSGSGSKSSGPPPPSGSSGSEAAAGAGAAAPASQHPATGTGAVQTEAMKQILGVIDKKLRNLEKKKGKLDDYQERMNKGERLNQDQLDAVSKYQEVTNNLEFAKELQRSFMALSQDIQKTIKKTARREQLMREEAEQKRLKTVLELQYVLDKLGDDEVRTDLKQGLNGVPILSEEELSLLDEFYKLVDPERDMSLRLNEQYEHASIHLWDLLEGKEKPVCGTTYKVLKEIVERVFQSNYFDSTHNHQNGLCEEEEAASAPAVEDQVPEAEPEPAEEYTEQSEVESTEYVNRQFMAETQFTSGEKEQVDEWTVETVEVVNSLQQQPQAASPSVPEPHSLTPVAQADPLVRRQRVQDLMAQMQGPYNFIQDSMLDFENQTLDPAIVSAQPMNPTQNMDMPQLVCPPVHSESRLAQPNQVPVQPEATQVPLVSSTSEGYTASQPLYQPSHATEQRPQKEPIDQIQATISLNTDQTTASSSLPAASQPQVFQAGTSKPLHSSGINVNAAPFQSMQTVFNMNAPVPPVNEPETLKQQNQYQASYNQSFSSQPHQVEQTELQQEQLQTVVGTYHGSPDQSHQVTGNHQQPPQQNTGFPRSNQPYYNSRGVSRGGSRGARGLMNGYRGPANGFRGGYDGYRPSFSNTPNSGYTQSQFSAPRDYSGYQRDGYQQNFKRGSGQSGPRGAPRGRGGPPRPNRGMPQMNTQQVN

B1: humanized antibody #8 (antibody, V domains shown)
VH: QSLVESGGGLVQPGGSLRLSCAASGFSLSSHSLGWVRQAPGKGLEWIGDIRSGGSAYYANWAKGRFTISRTSSKNTVYLQMNSLRAEDTAVYFCTRTNGPSDLTNRLDLWGQGTLVTVSS
VL: QVLTQSPSSLSASVGDRVTINCQASQSLYNNENLAWFQQKPGKVPKRLIYGASTLASGVSSRFSGSGSGTEFTLTISSLQCEDFAIYYCLGEFSCGSADCFAFGGGTKVEIK
B2: human-rabbit chimeric anti-CAPRIN-1 antibody (antibody, V domains shown)
VH: QSLEESGGRLVTPGTPLTLTCTASGFSLSSHSLGWVRQAPGKGLEWIGDIRSGGSAYYANWAKGRFTISRTSTTVALKMTSLTTEDTATYFCTRTNGPSDLTNRLDLWGQGTLVTVSS
VL: QVLTQTPSSVSAAVGGTVTINCQASQSLYNNENLAWFQQKPGQPPKRLIYGASTLASGVSSRFKGSGSGTQFTLTIGDVQCDDAAIYYCLGEFSCGSADCFAFGGGTEVVVK
B3: humanized antibody #3 (antibody, V domains shown)
VH: EVQLVESGGGLVQPGGSLRLSCAASGFSLSSHSLGWVRQAPGKGLEWIGDIRSGGSAYYANWAKGRFTISRDNSKNTLYLQMNSLRAEDTAVYYCTRTNGPSDLTNRLDLWGQGTLVTVSS
VL: EQVLTQSPSSLSASVGDRVTINCQASQSLYNNENLAWFQQKPGKVPKRLIYGASTLASGVSSRFSGSGSGTEFTLTISNLQPEDFAIYYCLGEFSCGSADCFAFGGGTKVEIK
B4: humanized antibody #5 (antibody, V domains shown)
VH: B3 VH with Y94F
VL: B3 VL
B5: humanized antibody #4 (antibody, V domains shown)
VH: B3 VH with Y94F
VL: B3 VL with Q2I, I87T
B6: humanized antibody #9 (antibody, V domains shown)
VH: B3 VH with V2Q, Q3S
VL: B3 VL with E1D, Q2I, N79S, P82C

Target: T1, CAPRIN-1 protein expressed on the …
Experiment: cell-based or functional assay

Binder	ADCC cytotoxic activity (51Cr release) on 22Rv1	ADCC cytotoxic activity (51Cr release) on A-673	ADCC cytotoxic activity (51Cr release) on BT-474	ADCC cytotoxic activity (51Cr release) on Caki-2	ADCC cytotoxic activity (51Cr release) on FaDu	ADCC cytotoxic activity (51Cr release) on G-361	ADCC cytotoxic activity (51Cr release) on HEC-1-A	ADCC cytotoxic activity (51Cr release) on HT-29	ADCC cytotoxic activity (51Cr release) on HT-1080	ADCC cytotoxic activity (51Cr release) on HT-1376	ADCC cytotoxic activity (51Cr release) on Hep3B	ADCC cytotoxic activity (51Cr release) on IM-9	ADCC cytotoxic activity (51Cr release) on MDA-MB-361	ADCC cytotoxic activity (51Cr release) on NCI-H2452	ADCC cytotoxic activity (51Cr release) on NCI-N87	ADCC cytotoxic activity (51Cr release) on NT/D1	ADCC cytotoxic activity (51Cr release) on OCI-AML5	ADCC cytotoxic activity (51Cr release) on OE33	ADCC cytotoxic activity (51Cr release) on Panc10.5	ADCC cytotoxic activity (51Cr release) on QG56	also measured
B1	≥ 38%	≥ 40%	≥ 46%	≥ 26%	≥ 35%	≥ 15%	≥ 40%	≥ 35%	≥ 20%	≥ 28%	≥ 21%	≥ 27%	≥ 40%	≥ 31%	≥ 34%	≥ 25%	≥ 15%	≥ 30%	≥ 24%	≥ 38%	ADCC cytotoxic activity (51Cr release) on RD-ES: ≥ 31%; ADCC cytotoxic activity (51Cr release) on RPM11666: ≥ 30%; ADCC cytotoxic activity (51Cr release) on Ramos: ≥ 15%; ADCC cytotoxic activity (51Cr release) on SKOV3: ≥ 27%; ADCC cytotoxic activity (51Cr release) on T24: ≥ 30%; ADCC cytotoxic activity (51Cr release) on TGBC14TKB: ≥ 25%; ADCC cytotoxic activity (51Cr release) on TT: ≥ 30%; ADCC cytotoxic activity (51Cr release) on U-87MG: ≥ 24%
B2	≥ 38%	≥ 40%	≥ 46%	≥ 26%	≥ 35%	≥ 15%	≥ 40%	≥ 35%	≥ 20%	≥ 28%	≥ 21%	≥ 27%	≥ 40%	≥ 31%	≥ 34%	≥ 25%	≥ 15%	≥ 30%	≥ 24%	≥ 38%	ADCC cytotoxic activity (51Cr release) on RD-ES: ≥ 31%; ADCC cytotoxic activity (51Cr release) on RPM11666: ≥ 30%; ADCC cytotoxic activity (51Cr release) on Ramos: ≥ 15%; ADCC cytotoxic activity (51Cr release) on SKOV3: ≥ 27%; ADCC cytotoxic activity (51Cr release) on T24: ≥ 30%; ADCC cytotoxic activity (51Cr release) on TGBC14TKB: ≥ 25%; ADCC cytotoxic activity (51Cr release) on TT: ≥ 30%; ADCC cytotoxic activity (51Cr release) on U-87MG: ≥ 24%
B3	≥ 45%	≥ 46%	≥ 50%	≥ 33%	≥ 40%	≥ 21%	≥ 45%	≥ 40%	≥ 25%	≥ 40%	≥ 25%	≥ 30%	≥ 45%	≥ 39%	≥ 38%	≥ 30%	≥ 18%	≥ 33%	≥ 30%	≥ 42%	ADCC cytotoxic activity (51Cr release) on RD-ES: ≥ 40%; ADCC cytotoxic activity (51Cr release) on RPM11666: ≥ 36%; ADCC cytotoxic activity (51Cr release) on Ramos: ≥ 18%; ADCC cytotoxic activity (51Cr release) on SKOV3: ≥ 31%; ADCC cytotoxic activity (51Cr release) on T24: ≥ 33%; ADCC cytotoxic activity (51Cr release) on TGBC14TKB: ≥ 30%; ADCC cytotoxic activity (51Cr release) on TT: ≥ 35%; ADCC cytotoxic activity (51Cr release) on U-87MG: ≥ 29%
B4	≥ 45%	≥ 46%	≥ 50%	≥ 33%	≥ 40%	≥ 21%	≥ 45%	≥ 40%	≥ 25%	≥ 40%	≥ 25%	≥ 30%	≥ 45%	≥ 39%	≥ 38%	≥ 30%	≥ 18%	≥ 33%	≥ 30%	≥ 42%	ADCC cytotoxic activity (51Cr release) on RD-ES: ≥ 40%; ADCC cytotoxic activity (51Cr release) on RPM11666: ≥ 36%; ADCC cytotoxic activity (51Cr release) on Ramos: ≥ 18%; ADCC cytotoxic activity (51Cr release) on SKOV3: ≥ 31%; ADCC cytotoxic activity (51Cr release) on T24: ≥ 33%; ADCC cytotoxic activity (51Cr release) on TGBC14TKB: ≥ 30%; ADCC cytotoxic activity (51Cr release) on TT: ≥ 35%; ADCC cytotoxic activity (51Cr release) on U-87MG: ≥ 29%
B5	≥ 45%	≥ 46%	≥ 50%	≥ 33%	≥ 40%	≥ 21%	≥ 45%	≥ 40%	≥ 25%	≥ 40%	≥ 25%	≥ 30%	≥ 45%	≥ 39%	≥ 38%	≥ 30%	≥ 18%	≥ 33%	≥ 30%	≥ 42%	ADCC cytotoxic activity (51Cr release) on RD-ES: ≥ 40%; ADCC cytotoxic activity (51Cr release) on RPM11666: ≥ 36%; ADCC cytotoxic activity (51Cr release) on Ramos: ≥ 18%; ADCC cytotoxic activity (51Cr release) on SKOV3: ≥ 31%; ADCC cytotoxic activity (51Cr release) on T24: ≥ 33%; ADCC cytotoxic activity (51Cr release) on TGBC14TKB: ≥ 30%; ADCC cytotoxic activity (51Cr release) on TT: ≥ 35%; ADCC cytotoxic activity (51Cr release) on U-87MG: ≥ 29%
B6	≥ 38%	≥ 40%	≥ 46%	≥ 26%	≥ 35%	≥ 15%	≥ 40%	≥ 35%	≥ 20%	≥ 28%	≥ 21%	≥ 27%	≥ 40%	≥ 31%	≥ 34%	≥ 25%	≥ 15%	≥ 30%	≥ 24%	≥ 38%	ADCC cytotoxic activity (51Cr release) on RD-ES: ≥ 31%; ADCC cytotoxic activity (51Cr release) on RPM11666: ≥ 30%; ADCC cytotoxic activity (51Cr release) on Ramos: ≥ 15%; ADCC cytotoxic activity (51Cr release) on SKOV3: ≥ 27%; ADCC cytotoxic activity (51Cr release) on T24: ≥ 30%; ADCC cytotoxic activity (51Cr release) on TGBC14TKB: ≥ 25%; ADCC cytotoxic activity (51Cr release) on TT: ≥ 30%; ADCC cytotoxic activity (51Cr release) on U-87MG: ≥ 24%
